Biological target: murine Flk-1 receptor tyrosine kinase (fetal liver kinase 1), full-length, transiently expressed in COS-1 cells from pCMV-Flk-1 (mouse) (UniProt P35918)
Experiment: competition of unlabeled VEGF (0 to 7 x 10^-9) with 10 pM 125I-VEGF on COS-1 cells expressing Flk-1; analysis by Munson and Rodbard

Chain of UniProt P35918 (P35918 other isoform, or with tags, fused parts or gaps limits assumed): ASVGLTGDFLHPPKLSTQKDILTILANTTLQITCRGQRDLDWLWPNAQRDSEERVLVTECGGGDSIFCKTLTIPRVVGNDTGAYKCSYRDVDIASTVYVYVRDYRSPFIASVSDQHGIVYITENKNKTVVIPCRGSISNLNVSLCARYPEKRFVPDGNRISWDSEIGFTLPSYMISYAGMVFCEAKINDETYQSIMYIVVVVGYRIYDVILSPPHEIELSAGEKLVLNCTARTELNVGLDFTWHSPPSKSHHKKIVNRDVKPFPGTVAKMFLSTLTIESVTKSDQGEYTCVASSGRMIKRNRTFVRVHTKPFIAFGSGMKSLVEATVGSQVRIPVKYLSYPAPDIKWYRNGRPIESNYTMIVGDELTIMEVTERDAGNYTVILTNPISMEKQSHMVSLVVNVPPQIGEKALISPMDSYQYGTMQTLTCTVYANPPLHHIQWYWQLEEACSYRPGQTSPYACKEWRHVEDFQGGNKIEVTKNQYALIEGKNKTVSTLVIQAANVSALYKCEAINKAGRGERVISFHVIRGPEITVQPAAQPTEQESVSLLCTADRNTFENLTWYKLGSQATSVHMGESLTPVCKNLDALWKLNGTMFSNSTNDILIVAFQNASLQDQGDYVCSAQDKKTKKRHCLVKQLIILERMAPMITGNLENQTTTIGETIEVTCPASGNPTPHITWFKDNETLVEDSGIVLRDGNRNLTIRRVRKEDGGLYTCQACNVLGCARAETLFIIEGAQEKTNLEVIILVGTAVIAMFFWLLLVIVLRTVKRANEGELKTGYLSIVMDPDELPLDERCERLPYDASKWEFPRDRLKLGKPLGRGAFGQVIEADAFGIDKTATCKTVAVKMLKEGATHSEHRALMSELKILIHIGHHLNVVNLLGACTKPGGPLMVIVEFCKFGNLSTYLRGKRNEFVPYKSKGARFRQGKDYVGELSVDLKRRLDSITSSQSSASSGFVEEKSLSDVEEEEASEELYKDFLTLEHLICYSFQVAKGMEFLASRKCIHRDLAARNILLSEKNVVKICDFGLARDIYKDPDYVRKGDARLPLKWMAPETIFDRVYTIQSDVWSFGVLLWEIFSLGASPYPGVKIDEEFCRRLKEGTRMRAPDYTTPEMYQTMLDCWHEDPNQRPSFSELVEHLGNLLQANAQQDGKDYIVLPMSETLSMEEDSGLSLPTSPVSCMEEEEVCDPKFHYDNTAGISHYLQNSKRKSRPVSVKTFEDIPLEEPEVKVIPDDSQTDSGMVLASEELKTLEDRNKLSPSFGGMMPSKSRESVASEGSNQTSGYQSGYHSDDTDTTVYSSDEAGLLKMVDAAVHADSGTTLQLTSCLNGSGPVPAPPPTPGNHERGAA

Kd: 100 pM
Substance: unlabeled VEGF (164 amino acid form), partially purified from conditioned media of COS-1 cells transiently expressing VEGF (from UniProt Q00731 1-392) (ligand)
